Test results as given in paper PMC3796545, “Protein-Protein Interactions as a Strategy towards Protein-Specific Drug Design: The Example of Ataxin-1” (PLoS ONE, 2013).

B1: L-CICp [human] / ATX1 AXH (residues A567-K689 of human ATX1) [human] (parent complex)
chain 1: VFPWHSLVPFLAPSQ
chain 2: GAMAPPTLPPYFMKGSIIQLANGELKKVEDLKTEDFIQSAEISNDLKIDSSTVERIEDSHSPGVAVIQFAVGEHRAQVSVEVLVEYPFFVFGQGWSSCCPERTSQLFDLPCSKLSVGDVCISLTLK

Variants of: B1
Experiment: ITC; parent: 30 nM

Kd | Variant
60 nM | chain 1 VFPWHSLVPALAPSQ
500 nM | chain 1 VFPWHSAVPFLAPSQ
20 nM | chain 1 AFPWHSLVPFLAPSQ
20 nM | chain 1 VFPWHSLVPFLAASQ
70 nM | chain 1 VFPWHSLAPFLAPSQ
2600 nM | chain 1 VFPAHSLVPFLAPSQ
10 nM | chain 1 VFPWHALVPFLAPSQ
20 nM | chain 1 VFPWHSLVPFLGPSQ
30 nM | chain 1 VAPWHSLVPFLAPSQ
40 nM | chain 1 VFAWHSLVPFLAPSQ
50 nM | chain 1 VFPWASLVPFLAPSQ
40 nM | chain 1 VFPWHSLVAFLAPSQ
50 nM | chain 1 VFPWHSLVPFAAPSQ
